Test results from US5262522.

Tests used:
[1] = target: High affinity oncostatin M receptors on non-transfected COS-7 cells; test: Scatchard analysis of 125I-oncostatin M binding to non-transfected COS-7 cells (FIG. 3 experiment), phthalate oil separation
[2] = target: T1, Human gp130 encoded by plasmid B10G, expressed on COS-7 cells (human); test: Scatchard analysis of 125I-oncostatin M binding to COS-7 cells transfected with B10G alone (FIG. 3 experiment), phthalate oil separation
T1 sequence: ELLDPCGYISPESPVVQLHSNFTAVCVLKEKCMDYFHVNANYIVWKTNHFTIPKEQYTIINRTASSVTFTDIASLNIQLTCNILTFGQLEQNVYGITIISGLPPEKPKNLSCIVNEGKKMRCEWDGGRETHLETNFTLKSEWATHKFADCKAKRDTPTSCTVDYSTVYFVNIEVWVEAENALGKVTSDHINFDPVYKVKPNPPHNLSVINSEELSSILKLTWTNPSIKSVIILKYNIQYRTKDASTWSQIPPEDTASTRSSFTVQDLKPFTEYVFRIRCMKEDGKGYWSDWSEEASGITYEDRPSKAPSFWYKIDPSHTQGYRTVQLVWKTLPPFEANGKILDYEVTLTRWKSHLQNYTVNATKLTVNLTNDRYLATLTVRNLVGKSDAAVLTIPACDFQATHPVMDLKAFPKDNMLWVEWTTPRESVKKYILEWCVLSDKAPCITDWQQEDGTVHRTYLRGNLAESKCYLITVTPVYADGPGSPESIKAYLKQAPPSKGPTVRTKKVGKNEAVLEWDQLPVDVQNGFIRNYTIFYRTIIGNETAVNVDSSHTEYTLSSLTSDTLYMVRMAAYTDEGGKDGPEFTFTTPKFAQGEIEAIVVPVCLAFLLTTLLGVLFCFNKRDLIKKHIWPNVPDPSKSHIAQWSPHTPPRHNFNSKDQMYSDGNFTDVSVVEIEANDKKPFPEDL

[3] = target: Receptor comprising gp130 (B10G) and LIF-R (pHLIFR-65) co-expressed on COS-7 cells (human); test: Scatchard analysis of 125I-oncostatin M binding to COS-7 cells co-transfected with B10G and pHLIFR-65 (curve A of FIG. 2), phthalate oil separation

- Kd [1]: 0.36 nM
- Kd [2]: 7.7 nM
- Kd [3]: 0.24 nM
B1: Oncostatin M (ligand, UniProt P13725 26-221, looked up, species assumed)
Oncostatin-M: AAIGSCSKEYRVLLGQLQKQTDLMQDTSRLLDPYIRIQGLDVPKLREHCRERPGAFPSEETLRGLGRRGFLQTLNATLGCVLHRLADLEQRLPKAQDLERSGLNIEDLEKLQMARPNILGLRNNIYCMAQLLDNSDTAEPTKAGRGASQPPTPTPASDAFQRKLEGCRFLHGYHRFMHSVGRVFSKWGESPNRSRR
modifications: 125I label in some uses
